The record followed here is publication PMC2848764, “The Arabidopsis EAR-motif-containing protein RAP2.1 functions as an active transcriptional repressor to keep stress responses under tight control”.

The data set addresses GST-RAP2.1 N-terminal 120 aa (AP2 DNA-binding domain) (UniProt Q8LC30 1-120). Description: EMSA; 100 ng probe, 5 or 10 ug protein; EMSA as in cited ref 42; buffer, salt, pH and temperature not given; 100 ng probe with 5 or 10 ug protein. Conditions: protein: recombinant; tags: GST (pGEX6P-1, N-terminal).

Chain of GST-RAP2.1 N-terminal 120 aa (AP2 DNA-binding domain) (Q8LC30 1-120): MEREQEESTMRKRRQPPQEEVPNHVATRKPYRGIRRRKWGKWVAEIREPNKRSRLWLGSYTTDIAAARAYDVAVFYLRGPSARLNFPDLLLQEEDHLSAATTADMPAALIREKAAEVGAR

B1: mDRE (dsDNA)
DNA 1: AATTCAAAAGATATACTACTTTTATGAGTT
DNA 2: AACTCATAAAAGTAGTATATCTTTTGAATT
With B1, the binding result is given as “no binding”.

B2: wDRE (dsDNA)
DNA 1: AATTCAAAAGATATACTACCGACATGAGTT
DNA 2: AACTCATGTCGGTAGTATATCTTTTGAATT
As for B2, the binding result is listed as “binds”.
